Literature values in PMC6530603.

Target: VP30 CTD (Zaire ebolavirus) (UniProt Q77DJ5)

In the case of “Nucleoprotein NP C-terminal region peptide (from UniProt P18272)”, the Kd is given as 5.7 µM.
